We go through 1 molecule from US11298402B2, “Lysosomal degradation of lipids and proteins and method of use thereof” (University of Ottawa, priority 2015, dated 2022).

The test system of assay [1] is McA-RH7777 cells (A18-C3). Nature of the assay: Autophagic flux (Cyto-ID assay). Type of assay: cell-based, rat. Here is the method: In certain non-limiting examples described herein, McA-RH7777 cells stably expressing human apoB-100 and human apoC-III (designated A18-C3) were used for the studies. […] In addition, these studies, particularly those concerning EPA- or DHA-triggered lysosomal motility and CLD degradation, were also performed using primary rat hepatocytes. Transfection of plasmids encoding proteins of interest, or transfection of siRNA specific for silencing target gene expression, was achieved using the FuGENE HP Extreme reagent (Roche). […] Quantification of cell lipid contents was achieved either by direct mass measurement (HPTLC) and counting the number of lipid droplets using Image J Lipid Droplet Counter Plug-In, or indirectly by Western blot analysis of cellular content of ADRP. Secretion of apoB and TG-rich lipoprotein was determined by Western blot analysis and metabolic labeling. Mitochondrial β-oxidation was measured using MitoSOX Red (Life Technologies) in situ. Autophagic flux was determined by using Cyto-ID assay (Enzo Life Science) and by monitoring GFP-LC3 clustering in situ. Interaction of Arl8b and subunits of the HOPS complex was determined in situ by the proximity ligation assay (Olink Biosience). Cytoplasmic pH was measured using the cytosolic pHrodo indicator reagent (Invitrogen). […]

The next assay relates to mice. In words: Mice fed a high fat diet for 30 days, adenoviral vector via tail vein. It counts as in vivo. As to conditions: HFD 30 days, Adv-MG1023 10^9 pfu/mouse, 48 h; vs empty vector. The source says: Mice were fed with a high fat diet (HFD) for 30 days, and injected with Adv-empty vector (EV) or Adv-MG1023 expressing Arl8b^T34N via the tail vein (10^9 pfu/mouse). Forty eight hours after virus injection, mice were euthanized and dissected to collect liver tissue samples. Liver tissues were frozen fresh in Cryomatrix (ThermoScientific), and then sectioned and processed for oil red o staining. Intrahepatic liver lipid droplets in the liver sections were observed under bright field microscope (Zeiss AxioImager M2).
In FIG. 48, mice were fed with a high fat diet (HFD) for 30 days, and injected with Adv-empty vector (EV) or Adv-MG1023 vector (FIG. 46) expressing Arl8b^T34N via the tail vein (10^9 pfu/mouse). Forty eight hours after virus injection, mice were euthanized and dissected to collect liver tissues. Liver tissues were frozen fresh in Cryomatrix (ThermoScientific), and then sectioned and processed for oil red o staining. Intrahepatic liver lipid droplets in the liver sections were observed under bright field microscope (Zeiss AxioImager M2).

B1: Arl8b^T34N: putative GDP-bound, dominant negative Arl8b mutant (Thr-to-Asn at 34; SEQ ID NO: 12), expressed from plasmid or adenovirus Adv-MG1023; tagged forms used (protein)
chain: MLALISRLLDWFRSLFWKEEMELTLVGLQYSGKNTFVNVIASGQFSEDMIPTVGFNMRKVTKGNVTIKIWDIGGQPRFRSMWERYCRGVNAIVYMIDAADREKIEASRNELHNLLDKPQLQGIPVLVLGNKRDLPNALDEKQLIEKMNLSAIQDREICCYSISCKEKDNIDITLQWLIQHSKSRRS
modifications: GFP/RFP tags in some forms; T34N substitution, GDP-binding
notes: tagged forms used
Regarding B1, the “autophagic flux upon EPA treatment in transfected cells” value in assay [1] was “does not induce autophagic flux”. Besides, in the assay with mice, the abdominal fat accumulation entry is “less abdominal fat”, the “fatty liver (Oil Red O)” value is reported as “more resistant to fatty liver” and the obesity result is “less obese”.
